Laboratory results published in the nanobody polyreactivity screen of Harvey et al. (2022).

Assay: yeast display, Sf9 membrane polyspecificity reagent, FACS + sequencing; frameworks hold sequencing errors
Method in brief: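 Genes from sorted yeast were amplified by colony PCR, read by MiSeq 2 × 250 sequencing and filtered on CDR length. These cells carried a synthetic nanobody library in Saccharomyces cerevisiae BJ5465 and were sorted by FACS into low and high (top ~1%) gates on anti-HA and streptavidin fluorescence. Polyreactivity is labelled according to the gate of origin.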

Sequence | polyreactivity (PSR sort gate)
QVQLVESGGGLVQAGGSLRLSCAASGSTFAKNAMGWYRQAPGKERQLVAAITYSGGSTYYADSVKGRFTISRDNAKNTVYLQMNSLKPEDTAVYYCAADVWWSYYRYDYWGQGTQVTVSS | low polyreactivity
QVQLVESGGGLVQAGGSLRLSCAASGRTFRNYAMGWYRQAPGKERELVAGITYSGGSTFYADSVKGRFTISRDNAKNTVYLQMNSLKPEDAAVYYCAAVYVPYYWLGRSRGLDYWGQGTQVTVSS | high polyreactivity
QVQLVESGGGLVQAGGSLRLSCAASGSTFKVYAMGWYRQAPGKERELVAAISQSGGSTYYADSVKGRFTITRDNAKNTVYFQMKSLKPEDTAVYYCAVRTYVYHWSFSSLPYDYWGQGTQVTVSS | high polyreactivity
QDQLVESGGGLVQAGGSLRLSCAASGSTLARYGMGWYRQAPGKERELVAAISYSGGRTYYADSVKGRFTISRDNAKNTVYLQMNSLKPEDTAVYYCAARRVYVPRGPIEFYYWGQGTQVTVSS | high polyreactivity
QVQLVESGGGLVQAGGSLRLSCAASGSTLTEYAMGWYRQAPGKEREFVAAISRSAGSTYYADSVKGRFTISRDNAKNTVYLQMNSLKPEETAVYYCAVAVRVGFDYFSGQADIYYYWGQGTQVTVSS | low polyreactivity
QVQLVESGGGLVQAGGSLRLSCAASGFIFTYYAMGWYRQAPGKERELVAAISSRGGSTFYADSVKGRFTISRDNAKNTVYLQMNSLKPEDTAVYYCAADKWYAANQGYYYWGQGTQVTVSS | low polyreactivity
QVQLVESGGGLVQAGGSLRLSCAASGSTYYTYAMGWYRQAPGKERELVAAITYSDGDTYYADSVKGRFTISRDNAKHTVYLQMNSLKPEDTAVYYCAADYQGQPGTGNLEYWGQGTQVTVSS | low polyreactivity
QVQLVESGRGLVQAGGSLRLSCAASGFTFGYYAMGWYRQAPGKERELVAAISASGASTYYADSVKGRFTISRDNAKNTVYLQMTSLKPEDTAVYYCAARPGQLTSPVTRTRYNYWGQGTQVTVSS | low polyreactivity
QVQLVESGGGLVQAGGSLRLSCAASGRIFRPYAMGWYRQAPGKERELVAGITSSGGSTYYADSVEGRFTISRDNAKNTVYLQMNSLKPEDTAVYYCAAVHGLFRPLHYYWGQGTQVTVSS | low polyreactivity
QVQLVESGGGLVQAGGSLRLSCAASGRIFNGYAMGWYRQAPGKERELVARISKRGGRTYYADSVKGRFTISRDNAKNTVYLQMNSLKPEDTAVYYCNAVPRVTRPSAVEEYDYWGQGTQVTVSS | high polyreactivity
QVQLVESGGGLVQAGGSLRLSCAASGSIFWGYAMGWYRQAPGKERELVATIPNRGGSTYYADSVKARFTISRDNAKNTVYLQMNSLKPEDTAVYYCAVERDYWTKASYYWGRGTQVTVSS | low polyreactivity
QVQLVESGGGLVQAGGSLRLSCAASGRIFTRNAMGWYRQAPGKEREFVAAISYRGGSTYYADSVKGRFTISRDYAKNTVYLQMNSLKPEDTAVYYCAAEPYIQWVYYGGNGRRYGYWGQGTQVTVSS | high polyreactivity
QVQLVESGGGLVQAGGSLRLSCAASGRIFTWNAMGWYRQAPGKERELVATINRGGNTNYADSVKGRFTISRDNAKNTVYLQMNSLKPEDTAVYYCAARYHYSNLYRFAYGYWGQGTQVTVSS | high polyreactivity
QVQLVESGGGLVQAGGSLRLSCAASGIIFGHYAMGWYRQAPGKERELVARITYSGTRTYYADSVKGRFTISRDNAKNTVYLQMNSLKPEDTAVYYCAAGYAYPRWVTAGNNWGQGTQVTVSS | high polyreactivity
QVQLVESGGGLVQAGGSLRLSCAASGRTFNTNAMGWYRQAPGKERELVAAISGGGSTYADSVKGRFTISRDNAKNTVYLQMNSLKPEDTAVYYCKAYPPYLYATYDYWGQGTQVTVSS | low polyreactivity
QVQLVESGGGLVQAGGSLRLSCAASGSIFGYYAMGWYRQAPGKERELVAAISGIGGSTYYADSVKGRFTISRDNAKNTVYLQMNSLKPEDTAVYYCAKARPHVGGGGDYWGQGTQVTVSS | low polyreactivity
QVQLVESGGGLVQAGGSLRLSCAASGRIFPYYAMGWYRQAPGKERELVATITSGGSTYYADSVKGRFTISRDNAKNTVYLQMNSLKPEDTAVYYCAARYPSIYYYRYDYWGQGTQVTVSS | high polyreactivity
